From patent US20210292423A1 (published 2021)
Like-named read-outs stand apart in the source and are kept apart here.

B1: CODV-Fab-TL1 hz20G6xhz7G3 antibody-like binding protein (bispecific antibody, human IgG1, kappa, L234A L235A)
light: DIVMTQSPDSLAVSLGERATINCESSQSLLNSGNQKNYLTWYQQKPGQPPKPLIYWASTRESGVPDRFSGSGSGTDFTLTISSLQAEDVAVYYCQNDYSYPYTFGQGTKLEIKGGSGSSGSGGDIVMTQTPLSLSVTPGQPASISCKSSQSLVHNNANTYLSWYLQKPGQSPQSLIYKVSNRFSGVPDRFSGSGSGTDFTLKISRVEAEDVGVYYCGQGTQYPFTFGSGTKVEIKGGSGSSGSGGRTVAAPSVFIFPPSDEQLKSGTASVVCLLNNFYPREAKVQWKVDNALQSGNSQESVTEQDSKDSTYSLSSTLTLSKADYEKHKVYACEVTHQGLSSPVTKSFNRGECDKTHTCPPCPAPEAAGGPSVFLFPPKPKDTLMISRTPEVTCVVVDVSHEDPEVKFNWYVDGVEVHNAKTKPREEQYNSTYRVVSVLTVLHQDWLNGKEYKCKVSNKALPAPIEKTISKAKGQPREPQVYTLPPSRDELTKNQVSLTCLVKGFYPSDIAVEWESNGQPENNYKTTPPVLDSDGSFFLYSKLTVDKSRWQQGNVFSCSVMHEALHNRFTQKSLSLSPG
heavy: not shown
notes: one chain of formula IV and one of formula III, IgG1 backbone; also called hz20G6xhz7G3 CODV-Fab-TL1
B2: single chain CD123 × CD3 bi-specific diabody in DART format MGD006 (bispecific antibody)
chain 1: QAVVTQEPSLTVSPGGTVTLTCRSSTGAVTTSNYANWVQQKPGQAPRGLIGGTNKRAPWTPARFSGSLLGGKAALTITGAQAEDEADYYCALWYSNLWVFGGGTKLTVLGGGGSGGGGEVQLVQSGAELKKPGASVKVSCKASGYTFTDYYMKWVRQAPGQGLEWIGDIIPSNGATFYNQKFKGRVTITVDKSTSTAYMELSSLRSEDTAVYYCARSHLLRASWFAYWGQGTLVTVSSGGCGGGEVAALEKEVAALEKEVAALEKEVAALEK
chain 2: DFVMTQSPDSLAVSLGERVTMSCKSSQSLLNSGNQKNYLTWYQQKPGQPPKLLIYWASTRESGVPDRFSGSGSGTDFTLTISSLQAEDVAVYYCQNDYSYPYTFGQGTKLEIKGGGSGGGGEVQLVESGGGLVQPGGSLRLSCAASGFTFSTYAMNWVRQAPGKGLEWVGRIRSKYNNYATYYADSVKDRFTISRDDSKNSLYLQMNSLKTEDTAVYYCVRHGNFGNSYVSWFAYWGQGTLVTVSSGGCGGGKVAALKEKVAALKEKVAALKEKVAALKE
notes: two chains covalently bonded by a disulfide bond; also called Single chain antibody DART format MGD006
B3: CODV-Fab hz4B4x3E3 antibody-like binding protein (bispecific antibody)
light: QFVLTQPNSVSTNLGSTVKLSCKRNTGNIGSNYVNWYQQHEGRSPTTMIYRDDKRPDGVPDRFSGSIDRSSNSALLTINNVQTEDEADYFCQSYSSGINIIFGGGTKLTVLGQPKAAPDVVMTQTPVSLSVSVGGRVSISCRSSQSLVHDNGNTYLSWSLQKPGKSPKVLIYKVSNRFSGVSSRFTGSGSGTDFTLKISSVQPDDLGVYYCGQGTQYPFTFGSGTKLEIKTKGPSRTVAAPSVFIFPPSDEQLKSGTASVVCLLNNFYPREAKVQWKVDNALQSGNSQESVTEQDSKDSTYSLSSTLTLSKADYEKHKVYACEVTHQGLSSPVTKSFNRGEC
heavy: QVQLVETGGGLVKPGQSLKLTCATSGFTFSNAWMHWVRQSPEKGLEWVAQIKARSNNYATYYAESVKGRFTISRDDSKSTIYLQMNSLTPEDTAIYYCRGTYYASKPFDYWGQGVMVTVSSSQVQLQESGPGLVQPSQTLSLTCTVSGFSLTTYDVHWVRQPPGKGLEWMGRIQNGGITDYNSALKSRLIISRDTSKSQVFLKMNSVQTEDTAMYFCAKTGSYFYAFDHWGQGTLVTVSSRTASTKGPSVFPLAPSSKSTSGGTAALGCLVKDYFPEPVTVSWNSGALTSGVHTFPAVLQSSGLYSLSSVVTVPSSSLGTQTYICNVNHKPSNTKVDKKVEPKSCDKTHTHHHHHH
notes: also called hz4B4 × 3E3 CODV-Fab

Key:
[1] = target: T1, human CD3ε/δ-Fc fusion protein (soluble recombinant CD3ε/δ complex) (human, UniProt P04234 22-105); assay: SPR Biacore
T1 construct: also called huCD3ε/δ; huCD3; not shown: hinge, CH2, CH3 of human IgG with tag

[2] = target: T2, human CD123 Strep-II tagged Fc-fusion protein (human); assay: SPR Biacore
T2 construct: also called human CD123-Fc; recombinant CD123

[3] = target: T3, human CD3 (TCR complex) on primary human T cells or Jurkat cells (human, UniProt P07766 23-207); assay: cell-based or functional assay
[4] = target: T4, human CD123 (IL3RA) on cells (human, UniProt P26951 19-378); assay: cell-based or functional assay
[5] = target: T3, human CD3 (TCR complex) on primary …; assay: cell-based or functional assay; remark: listed apart in the source
[6] = target: T1, human CD3ε/δ-Fc fusion protein (soluble …); assay: SPR Biacore; remark: listed apart in the source
[7] = target: T2, human CD123 Strep-II tagged Fc-fusion …; assay: SPR Biacore; remark: listed apart in the source
[8] = target: T4, human CD123 (IL3RA) on cells; assay: cell-based or functional assay; remark: listed apart in the source
[9] = target: T4, human CD123 (IL3RA) on cells; assay: cell-based or functional assay; remark: listed apart in the source

T4 sequence (P26951 19-378): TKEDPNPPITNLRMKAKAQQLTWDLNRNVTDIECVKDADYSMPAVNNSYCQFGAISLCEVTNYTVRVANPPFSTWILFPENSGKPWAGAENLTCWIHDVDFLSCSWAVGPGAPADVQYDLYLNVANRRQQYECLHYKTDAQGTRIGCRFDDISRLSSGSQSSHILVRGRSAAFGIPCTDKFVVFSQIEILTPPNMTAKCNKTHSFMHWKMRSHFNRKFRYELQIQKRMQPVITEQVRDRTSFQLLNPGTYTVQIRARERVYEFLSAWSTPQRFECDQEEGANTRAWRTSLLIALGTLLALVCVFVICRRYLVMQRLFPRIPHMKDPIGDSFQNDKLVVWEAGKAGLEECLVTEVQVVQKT
T1 sequence (chain, as listed by the source mutant, chain 1 of 2): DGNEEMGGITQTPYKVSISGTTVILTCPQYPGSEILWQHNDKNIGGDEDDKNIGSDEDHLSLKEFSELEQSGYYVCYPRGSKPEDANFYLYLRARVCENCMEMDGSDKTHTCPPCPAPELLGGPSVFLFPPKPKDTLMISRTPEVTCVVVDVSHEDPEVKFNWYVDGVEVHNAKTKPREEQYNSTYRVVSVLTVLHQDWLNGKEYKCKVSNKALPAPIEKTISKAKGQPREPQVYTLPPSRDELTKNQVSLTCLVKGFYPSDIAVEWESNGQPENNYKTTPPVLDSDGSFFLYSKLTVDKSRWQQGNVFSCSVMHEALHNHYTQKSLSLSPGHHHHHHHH
T1 sequence (P04234 22-105, stated change not applied, chain 2 of 2): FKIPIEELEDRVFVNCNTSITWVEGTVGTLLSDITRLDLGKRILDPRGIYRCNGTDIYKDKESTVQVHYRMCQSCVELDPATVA
T3 sequence (P07766 23-207, one chain of several): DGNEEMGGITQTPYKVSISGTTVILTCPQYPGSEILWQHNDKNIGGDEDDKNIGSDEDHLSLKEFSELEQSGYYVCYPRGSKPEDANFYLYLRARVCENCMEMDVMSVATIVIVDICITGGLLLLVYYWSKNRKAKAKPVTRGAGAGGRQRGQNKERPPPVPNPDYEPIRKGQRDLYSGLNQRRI
T2 sequence (chain, as listed by the source limits assumed): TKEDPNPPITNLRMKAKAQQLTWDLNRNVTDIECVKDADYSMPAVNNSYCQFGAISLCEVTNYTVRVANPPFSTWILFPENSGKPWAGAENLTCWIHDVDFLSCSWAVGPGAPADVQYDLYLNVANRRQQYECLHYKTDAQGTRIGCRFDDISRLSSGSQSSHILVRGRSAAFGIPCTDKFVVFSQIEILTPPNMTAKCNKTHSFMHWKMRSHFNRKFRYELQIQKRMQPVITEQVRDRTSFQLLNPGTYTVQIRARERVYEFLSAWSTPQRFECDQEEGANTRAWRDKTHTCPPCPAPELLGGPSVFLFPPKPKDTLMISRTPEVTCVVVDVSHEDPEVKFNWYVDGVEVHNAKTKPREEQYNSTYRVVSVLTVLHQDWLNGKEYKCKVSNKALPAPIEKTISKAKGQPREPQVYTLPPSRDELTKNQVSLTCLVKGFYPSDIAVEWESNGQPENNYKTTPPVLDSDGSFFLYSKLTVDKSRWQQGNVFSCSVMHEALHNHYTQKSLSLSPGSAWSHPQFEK

Binder	Kd [1] [nM]	Kd [2] [nM]	T cell activation with THP-1 target cells, CD4+ T cells (% CD69+ cells) EC50 (pM) [3] [pM]	T cell activation with THP-1 target cells, CD8+ T cells (% CD69+ cells) EC50 (pM) [3] [pM]	Cytotoxic assay (THP cells) EC50 [pM] [4] [pM]	Jurkat-NFAT-Luc reporter, no target cells, activation at Cmax in relation to max. activation in assay with target cells (%) [5] [%]	Jurkat-NFAT-Luc reporter, with THP1 cells, EC50 (pM) [5] [pM]	Kd [6] [nM]	Kd [7] [nM]	Cytotoxicity (THP-1) geomean EC50 [8] [ng/mL]	Cytotoxicity (THP-1) geomean EC50 [pM] [8] [pM]	Cytotoxic assay (THP cells) EC50 [pM] [9] [pM]
B1	11	0.2	3.2	9.9	1	0.4	444	–	–	–	–	–
B2	9	0.2	1	3.5	0.3	25.1	370	–	–	–	–	–
B3	–	–	–	–	–	–	–	7	4.8	2	26.5	26.5
